# B1: Bone morphogenetic protein receptor type-1B (Homo sapiens), O00238 (parent)
# chain: MLLRSAGKLNVGTKKEDGESTAPTPRPKVLRCKCHHHCPEDSVNNICSTDGYCFTMIEEDDSGLPVVTSGCLGLEGSDFQCRDTPIPHQRRSIECCTERNECNKDLHPTLPPLKNRDFVDGPIHHRALLISVTVCSLLLVLIILFCYFRYKRQETRPRYSIGLEQDETYIPPGESLRDLIEQSQSSGSGSGLPLLVQRTIAKQIQMVKQIGKGRYGEVWMGKWRGEKVAVKVFFTTEEASWFRETEIYQTVLMRHENILGFIAADIKGTGSWTQLYLITDYHENGSLYDYLKSTTLDAKSMLKLAYSSVSGLCHLHTEIFSTQGKPAIAHRDLKSKNILVKKNGTCCIADLGLAVKFISDTNEVDIPPNTRVGTKRYMPPEVLDESLNRNHFQSYIMADMYSFGLILWEVARRCVSGGIVEEYQLPYHDLVPSDPSYEDMREIVCIKKLRPSFPNRWSSDECLRQMGKLMTECWAHNPASRLTALRVKKTLAKMSESQDIKL
# partner: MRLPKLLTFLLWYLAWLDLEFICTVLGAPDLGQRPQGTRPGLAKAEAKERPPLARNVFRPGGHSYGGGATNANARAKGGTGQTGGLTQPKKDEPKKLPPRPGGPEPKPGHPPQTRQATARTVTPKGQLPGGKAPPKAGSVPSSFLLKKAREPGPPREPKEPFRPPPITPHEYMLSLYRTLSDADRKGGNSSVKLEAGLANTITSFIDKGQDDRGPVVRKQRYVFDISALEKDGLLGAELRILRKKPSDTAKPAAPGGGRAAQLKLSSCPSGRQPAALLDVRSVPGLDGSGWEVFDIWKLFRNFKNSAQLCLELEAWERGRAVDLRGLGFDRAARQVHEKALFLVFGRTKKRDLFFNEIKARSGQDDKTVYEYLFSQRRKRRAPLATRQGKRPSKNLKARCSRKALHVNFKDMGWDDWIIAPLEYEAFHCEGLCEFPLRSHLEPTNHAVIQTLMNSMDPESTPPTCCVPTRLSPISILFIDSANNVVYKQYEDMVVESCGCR
# B2: Bone morphogenetic protein receptor type-1B (Homo sapiens), O00238 (parent)
# chain: B1 chain
# partner: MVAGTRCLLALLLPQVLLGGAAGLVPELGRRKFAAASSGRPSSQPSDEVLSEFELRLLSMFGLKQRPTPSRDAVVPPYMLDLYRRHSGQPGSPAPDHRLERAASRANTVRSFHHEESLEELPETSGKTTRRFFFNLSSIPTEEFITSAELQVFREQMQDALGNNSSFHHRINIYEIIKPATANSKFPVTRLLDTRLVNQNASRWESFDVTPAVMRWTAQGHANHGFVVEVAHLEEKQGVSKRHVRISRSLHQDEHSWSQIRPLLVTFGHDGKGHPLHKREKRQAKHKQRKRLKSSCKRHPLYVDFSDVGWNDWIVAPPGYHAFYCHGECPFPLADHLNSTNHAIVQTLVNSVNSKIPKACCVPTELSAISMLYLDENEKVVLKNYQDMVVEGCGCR
# Variants of: B1
# Conditions: with gdf5_human GDF5, P43026
row,Variant,effect of a mutation on the interaction
1,MLLRSAGKLNVGTKKEDGESTAPTPRPKVLRCKCHHHCPEDSVNNICSTDGYCFTMIEEDDSGLPVVTSGCLGLEGSDFACRDTPIPHQRRSIECCTERNECNKDLHPTLPPLKNRDFVDGPIHHRALLISVTVCSLLLVLIILFCYFRYKRQETRPRYSIGLEQDETYIPPGESLRDLIEQSQSSGSGSGLPLLVQRTIAKQIQMVKQIGKGRYGEVWMGKWRGEKVAVKVFFTTEEASWFRETEIYQTVLMRHENILGFIAADIKGTGSWTQLYLITDYHENGSLYDYLKSTTLDAKSMLKLAYSSVSGLCHLHTEIFSTQGKPAIAHRDLKSKNILVKKNGTCCIADLGLAVKFISDTNEVDIPPNTRVGTKRYMPPEVLDESLNRNHFQSYIMADMYSFGLILWEVARRCVSGGIVEEYQLPYHDLVPSDPSYEDMREIVCIKKLRPSFPNRWSSDECLRQMGKLMTECWAHNPASRLTALRVKKTLAKMSESQDIKL [Q80A],decreasing interaction

# Variants of: B1
# Conditions: with gdf5_human GDF5, P43026
# Remark: another data set of the same source
row,Variant,effect of a mutation on the interaction
1,MLLRSAGKLNVGTKKEDGESTAPTPRPKVLRCKCSHHCPEDSVNNICSTDGYCFTMIEEDDSGLPVVTSGCLGLEGSDFQCRDTPIPHQRRSIECCTERNECNKDLHPTLPPLKNRDFVDGPIHHRALLISVTVCSLLLVLIILFCYFRYKRQETRPRYSIGLEQDETYIPPGESLRDLIEQSQSSGSGSGLPLLVQRTIAKQIQMVKQIGKGRYGEVWMGKWRGEKVAVKVFFTTEEASWFRETEIYQTVLMRHENILGFIAADIKGTGSWTQLYLITDYHENGSLYDYLKSTTLDAKSMLKLAYSSVSGLCHLHTEIFSTQGKPAIAHRDLKSKNILVKKNGTCCIADLGLAVKFISDTNEVDIPPNTRVGTKRYMPPEVLDESLNRNHFQSYIMADMYSFGLILWEVARRCVSGGIVEEYQLPYHDLVPSDPSYEDMREIVCIKKLRPSFPNRWSSDECLRQMGKLMTECWAHNPASRLTALRVKKTLAKMSESQDIKL [H35S],decreasing interaction
2,MLLRSAGKLNVGTKKEDGESTAPTPRPKVLRCKCHGHCPEDSVNNICSTDGYCFTMIEEDDSGLPVVTSGCLGLEGSDFQCRDTPIPHQRRSIECCTERNECNKDLHPTLPPLKNRDFVDGPIHHRALLISVTVCSLLLVLIILFCYFRYKRQETRPRYSIGLEQDETYIPPGESLRDLIEQSQSSGSGSGLPLLVQRTIAKQIQMVKQIGKGRYGEVWMGKWRGEKVAVKVFFTTEEASWFRETEIYQTVLMRHENILGFIAADIKGTGSWTQLYLITDYHENGSLYDYLKSTTLDAKSMLKLAYSSVSGLCHLHTEIFSTQGKPAIAHRDLKSKNILVKKNGTCCIADLGLAVKFISDTNEVDIPPNTRVGTKRYMPPEVLDESLNRNHFQSYIMADMYSFGLILWEVARRCVSGGIVEEYQLPYHDLVPSDPSYEDMREIVCIKKLRPSFPNRWSSDECLRQMGKLMTECWAHNPASRLTALRVKKTLAKMSESQDIKL [H36G],decreasing interaction

# Variants of: B1
# Conditions: with gdf5_human GDF5, P43026
# Remark: another data set of the same source
row,Variant,effect of a mutation on the interaction
1,MLLRSAGKLNVGTKKEDGESTAPTPRPKVLRCKCHHHCPEDSVNNICSTDGYCFTMIEEDDSGLPVVTSGCLGLEGSDAQCRDTPIPHQRRSIECCTERNECNKDLHPTLPPLKNRDFVDGPIHHRALLISVTVCSLLLVLIILFCYFRYKRQETRPRYSIGLEQDETYIPPGESLRDLIEQSQSSGSGSGLPLLVQRTIAKQIQMVKQIGKGRYGEVWMGKWRGEKVAVKVFFTTEEASWFRETEIYQTVLMRHENILGFIAADIKGTGSWTQLYLITDYHENGSLYDYLKSTTLDAKSMLKLAYSSVSGLCHLHTEIFSTQGKPAIAHRDLKSKNILVKKNGTCCIADLGLAVKFISDTNEVDIPPNTRVGTKRYMPPEVLDESLNRNHFQSYIMADMYSFGLILWEVARRCVSGGIVEEYQLPYHDLVPSDPSYEDMREIVCIKKLRPSFPNRWSSDECLRQMGKLMTECWAHNPASRLTALRVKKTLAKMSESQDIKL [F79A],disrupting interaction

# Variants of: B2
# Conditions: with bmp2_human BMP2, P12643
row,Variant,effect of a mutation on the interaction
1,MLLRSAGKLNVGTKKEDGESTAPTPRPKVLRCKCHHHCPEDSVNNICSTDGYCFTMIEEDDSGLPVVTSGCLGLEGSDAQCRDTPIPHQRRSIECCTERNECNKDLHPTLPPLKNRDFVDGPIHHRALLISVTVCSLLLVLIILFCYFRYKRQETRPRYSIGLEQDETYIPPGESLRDLIEQSQSSGSGSGLPLLVQRTIAKQIQMVKQIGKGRYGEVWMGKWRGEKVAVKVFFTTEEASWFRETEIYQTVLMRHENILGFIAADIKGTGSWTQLYLITDYHENGSLYDYLKSTTLDAKSMLKLAYSSVSGLCHLHTEIFSTQGKPAIAHRDLKSKNILVKKNGTCCIADLGLAVKFISDTNEVDIPPNTRVGTKRYMPPEVLDESLNRNHFQSYIMADMYSFGLILWEVARRCVSGGIVEEYQLPYHDLVPSDPSYEDMREIVCIKKLRPSFPNRWSSDECLRQMGKLMTECWAHNPASRLTALRVKKTLAKMSESQDIKL [F79A],disrupting interaction
